{"source": "paper PMC6018217", "about": "“3-Hydroxyphthalic Anhydride- Modified Rabbit Anti-PAP IgG as a Potential Bifunctional HIV-1 Entry Inhibitor” (Frontiers in Microbiology, 2018)", "proteins": {"B1": {"name": "Peptide PAP248-286 (amino acid residues 248-286 of prostatic acidic phosphatase) (peptide, UniProt P15309 248-286, looked up)", "peptide": "GIHKQKEKSRLQGGVLVNEILNHMKRATQIPSYKKLIMY", "notes": "Forms SEVI amyloid fibrils when agitated at 3 mg/ml in PBS, 37°C; also called SEVI; SEVI fibrils; source: synthetic peptide (Fmoc solid phase, GL Biochem, HPLC purified)"}}, "molecular_target": "the molecule itself", "experiment": "amyloid fibril formation (ThT fluorescence, Congo red, TEM, CD); PAP248-286 alone at 3 mg/ml in PBS, agitated at 1,400 rpm, 37°C, 0-48 h; fibrils read by ThT fluorescence, Congo red staining, negative-stain TEM and CD"}
{"protein": "B1", "values": [{"measurement": "binding result", "result": "binds"}]}
